1 substance from PMC5768788 can be followed below.

This assay concerns the target 14-3-3γ (UniProt P61981). Nature of the assay: co-immunoprecipitation and immunoblot. The settings on record: reference: wild-type Flag-PP1α; sites S224,T226. (In western blotting, separated proteins are transferred to a membrane and probed.)

As for PP1α (from UniProt P62136) S224A/T226A, the “binding against the reference” value is on record as “weaker”.
